Source: US20230265151A1, “GIP/GLP1 CO-AGONIST COMPOUNDS” (priority 2020, published 2023)
Numbering of substitutions follows the chain as printed.

T1: human GIP receptor (human, UniProt P48546 22-466)
T1 sequence (looked up): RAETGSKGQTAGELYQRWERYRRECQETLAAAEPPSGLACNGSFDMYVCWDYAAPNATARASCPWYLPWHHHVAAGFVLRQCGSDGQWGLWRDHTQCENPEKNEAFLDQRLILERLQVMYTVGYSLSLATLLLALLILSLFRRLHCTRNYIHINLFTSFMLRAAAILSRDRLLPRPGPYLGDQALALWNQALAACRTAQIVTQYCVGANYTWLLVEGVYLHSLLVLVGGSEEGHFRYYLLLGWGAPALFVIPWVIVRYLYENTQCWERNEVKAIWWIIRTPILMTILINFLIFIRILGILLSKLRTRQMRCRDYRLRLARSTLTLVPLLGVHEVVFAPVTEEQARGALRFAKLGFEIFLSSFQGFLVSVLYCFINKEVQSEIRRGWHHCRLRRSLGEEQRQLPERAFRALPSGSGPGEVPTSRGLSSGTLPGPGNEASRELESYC

B1: Example 136 (peptide)
peptide: YXEGTXTSDKSIXLDXKAQXEFIXXLIEGGPSSGAPPPS
modifications: Aib2, αMeF(2F)6, αMeL13, Orn16, Aib20, D-Glu24, αMeY25, K10 and K17: K(AEEA2-(γ-Glu)-CO-(CH2)10-CH3), C-terminal NH2
B2: Example 137 (peptide)
peptide: B1 peptide with K10X, E21K
modifications: Aib2, αMeF(2F)6, 4Pal10, αMeL13, Orn16, Aib20, D-Glu24, αMeY25, K17 and K21: K(AEEA2-(γ-Glu)-CO-(CH2)10-CH3), C-terminal NH2
B3: Example 138 (peptide)
peptide: B1 peptide with K10X, X24K
modifications: Aib2, αMeF(2F)6, 4Pal10, αMeL13, Orn16, Aib20, αMeY25, K17 and K24: K(AEEA2-(γ-Glu)-CO-(CH2)10-CH3), C-terminal NH2
B4: Example 139 (peptide)
peptide: B1 peptide with K10X, E28K
modifications: Aib2, αMeF(2F)6, 4Pal10, αMeL13, Orn16, Aib20, D-Glu24, αMeY25, K17 and K28: K(AEEA2-(γ-Glu)-CO-(CH2)10-CH3), C-terminal NH2
B5: Example 140 (peptide)
peptide: B1 peptide with K10X, G30K
modifications: Aib2, αMeF(2F)6, 4Pal10, αMeL13, Orn16, Aib20, D-Glu24, αMeY25, K17 and K30: K(AEEA2-(γ-Glu)-CO-(CH2)10-CH3), C-terminal NH2
B6: Example 141 (peptide)
peptide: YXEGTXTSDXSIXLDXKAQXEFIXXLIEGGPSSGAPPPSK
modifications: Aib2, αMeF(2F)6, 4Pal10, αMeL13, Orn16, Aib20, D-Glu24, αMeY25, K17 and K40: K(AEEA2-(γ-Glu)-CO-(CH2)10-CH3), C-terminal NH2
B7: Example 143 (peptide)
peptide: B1 peptide with K10X, P31K
modifications: Aib2, αMeF(2F)6, 2FA10, αMeL13, Orn16, Aib20, D-Glu24, αMeY25, K17 and K31: K(AEEA2-(γ-Glu)-CO-(CH2)12-CO2H), C-terminal NH2
B8: Example 144 (peptide)
peptide: B1 peptide with K10X, P31K
modifications: Aib2, αMeF(2F)6, 4TAA10, αMeL13, Orn16, Aib20, D-Glu24, αMeY25, K17 and K31: K(AEEA2-(γ-Glu)-CO-(CH2)12-CO2H), C-terminal NH2
B9: Example 14 (peptide)
peptide: B1 peptide with K10X, P31K
modifications: Aib2, αMeF(2F)6, 4Pal10, αMeL13, Orn16, Aib20, D-Glu24, αMeY25, K17 and K31: K(AEEA-(γ-Glu)-CO-(CH2)10-CH3), C-terminal NH2
B10: Example 145 (peptide)
peptide: B1 peptide with K10X, P31K
modifications: Aib2, αMeF(2F)6, 2TA10, αMeL13, Orn16, Aib20, D-Glu24, αMeY25, K17 and K31: K(AEEA2-(γ-Glu)-CO-(CH2)12-CO2H), C-terminal NH2
B11: Example 146 (peptide)
peptide: B1 peptide with K10X, P31K
modifications: Aib2, αMeF(2F)6, 3TA10, αMeL13, Orn16, Aib20, D-Glu24, αMeY25, K17 and K31: K(AEEA2-(γ-Glu)-CO-(CH2)12-CO2H), C-terminal NH2
B12: Example 147 (peptide)
peptide: B1 peptide with K10X, F22X, P31K
modifications: Aib2, αMeF(2F)6, 4Pal10, αMeL13, Orn16, Aib20, Bzt22, D-Glu24, αMeY25, K17 and K31: K(AEEA2-(γ-Glu)-CO-(CH2)12-CO2H), C-terminal NH2
B13: Example 148 (peptide)
peptide: B1 peptide with K10X, F22X, P31K
modifications: Aib2, αMeF(2F)6, 4Pal10, αMeL13, Orn16, Aib20, ChA22, D-Glu24, αMeY25, K17 and K31: K(AEEA2-(γ-Glu)-CO-(CH2)12-CO2H), C-terminal NH2
B14: Example 149 (peptide)
peptide: B1 peptide with K10X, P31K
modifications: Aib2, αMeF(2F)6, 4Pal10, αMeL13, Orn16, Orn20, D-Glu24, αMeY25, K17 and K31: K(AEEA2-(γ-Glu)-CO-(CH2)12-CO2H), C-terminal NH2
B15: Example 150 (peptide)
peptide: B1 peptide with K10X, E21X, P31K
modifications: Aib2, αMeF(2F)6, 4Pal10, αMeL13, Orn16, Aib20, Orn21, D-Glu24, αMeY25, K17 and K31: K(AEEA2-(γ-Glu)-CO-(CH2)12-CO2H), C-terminal NH2
B16: Example 151 (peptide)
peptide: B1 peptide with K10X, E28X, P31K
modifications: Aib2, αMeF(2F)6, 4Pal10, αMeL13, Orn16, Aib20, D-Glu24, αMeY25, Orn28, K17 and K31: K(AEEA2-(γ-Glu)-CO-(CH2)12-CO2H), C-terminal NH2

Columns and labels:
Assay in all cases: cell-based or functional assay
human GIP receptor = target: T1, human GIP receptor
human GLP-1 receptor = human GLP-1 receptor (human, UniProt P43220 24-463)
human glucagon receptor = human glucagon receptor (human, UniProt P47871 26-477)

Binder | EC50, cAMP (human GIP receptor) | Emax, cAMP (human GIP receptor) | EC50, cAMP (human GLP-1 receptor) | EC50, cAMP (human glucagon receptor) | Emax, cAMP (human GLP-1 receptor)
B1 | 0.0069 nM | 97.4% | 0.0918 nM | > 9.95 µM | 
B2 | 0.0116 nM |  | 0.134 nM | > 9.95 µM | 
B3 | 0.0197 nM |  | 0.267 nM | > 9.95 µM | 
B4 | 0.0108 nM |  | 0.141 nM | > 9.95 µM | 111%
B5 | 0.0121 nM | 98.5% | 0.131 nM | > 9.95 µM | 
B6 | 0.00723 nM | 98.8% | 0.0693 nM | > 9.95 µM | 
B7 | 0.022 nM |  | 0.512 nM | > 9.95 µM | 
B8 | 0.0193 nM | 90% | 3.47 nM | > 9.95 µM | 
B9 | 0.00802 nM |  | 0.0884 nM | > 9.95 µM | 
B10 | 0.0286 nM | 74.8% | 0.555 nM | > 9.95 µM | 
B11 | 0.0198 nM | 76.5% | 0.688 nM | > 9.95 µM | 
B12 | 0.0229 nM |  | 0.338 nM | > 9.95 µM | 93.5%
B13 | 0.0209 nM |  | 1.77 nM | > 9.95 µM | 94.5%
B14 | 0.0791 nM |  | 1.5 nM | > 9.95 µM | 
B15 | 0.0268 nM |  | 0.455 nM | > 9.95 µM | 
B16 | 0.0197 nM |  | 0.546 nM | > 9.95 µM | 
